Source: patent US20120308575A1 (SHANGHAI BIOMABS PHARMACEUTICALS, published 2012)

Legend:
[1] = molecular target: T1, recombinant human TNF-α (Product 210-TA-050, R&D) (human, UniProt P01375 77-233); experiment: competition ELISA: biotin-TNF-α (10 ng/ml) on coated P75 receptor-Fc, antibody titrated; experiment 1
T1 construct: Bought protein; Amine-coupled to the chip in SPR, biotin-labelled in the P75 ELISA, FITC-labelled in the U937 assay; also called rhTNF-α; Recombinant TNFα (R&D)
Experimental: (§1) 10 μg/ml of P75 receptor-Fc fusion protein (which was prepared according to the method described in Chinese Patent Application No. 01132074.5 entitled “Recombinant genes, fusion genes and products of the soluble fragment of Tumor Necrosis Factor Receptor” filed on Oct. 31, 2001) was used to coat ELIAS plates and reacted at 37° C. for 2 h; 3% BSA-PBS was used to block the plate wells and reacted overnight at 4° C. […] The diluted samples and control samples were added to washed ELIAS plates with 100 μl/well and reacted at 37° C. for 1 h; the ELIAS plates were washed; HRP-avidin (Zymed) was diluted at 1:1000 with PBS and added to the ELIAS plates with 100 μl/well and reacted at 37° C. for 1 h; the ELIAS plates were washed; equal volumes of A solution and B solution (Jingmei BioTech Co. Ltd.) of TMB substrate for HRP were mixed and added to the ELIAS plates with 100 μl/well and reacted at room temperature for 10 minutes in darkness; each well was added with 100 μl of 0.5M sulphuric acid to stop the reaction. Absorbance at […] was measured using microplate reader. The concentration of samples was used as x-coordinate and absorbance was used as y-coordinate.

[2] = molecular target: T1, recombinant human TNF-α (Product …); experiment: competition ELISA: biotin-TNF-α (10 ng/ml) on coated P75 receptor-Fc, antibody titrated; experiment 3
Experimental: as §1

[3] = molecular target: T1, recombinant human TNF-α (Product …); experiment: flow cytometry competition: FITC-TNF-α (100 ng/ml) on U937 cells, antibody titrated; experiment 1
Experimental: (§2) U937 cells (ATCC CRL1593) were cultured in RPMI-1640 medium (GIBCO) containing 10% fetal bovine serum (JRH). […] The cells at logarithmic growth phase were counted and then centrifuged at 200 g for 5 min. Supernatant was removed and cell pellets were resuspended in PBS containing 1% fetal bovine serum. The cells were adjusted to a concentration 1×10⁶/ml, and then distributed into flow cytometry test tubes, with 100 μl/tube. […] The diluted samples and control samples were added into flow cytometry test tubes, with 100 μl/tube, and reacted at 4° C. for 1 hour in darkness; the cells were washed twice with PBS containing 1% fetal bovine serum, and centrifuged at 200 g for 5 min each time. Supernatant was removed and cell pellets were resuspended in 300 μl of PBS containing 1% fetal bovine serum. Flow cytometry was used to measure the fluorescence intensity of each tube. Sample concentration was plotted on the x-coordinate and […] was plotted on the y-coordinate.

[4] = molecular target: T1, recombinant human TNF-α (Product …); experiment: flow cytometry competition: FITC-TNF-α (100 ng/ml) on U937 cells, antibody titrated; experiment 2
Experimental: as §2

[5] = molecular target: T1, recombinant human TNF-α (Product …); experiment: flow cytometry competition: FITC-TNF-α (100 ng/ml) on U937 cells, antibody titrated; experiment 3
Experimental: as §2

[6] = molecular target: T1, recombinant human TNF-α (Product …); experiment: competition ELISA: biotin-TNF-α (10 ng/ml) on coated P75 receptor-Fc, antibody titrated; experiment 2
Experimental: as §1

[7] = molecular target: T1, recombinant human TNF-α (Product …); experiment: SPR, Biacore T100, TNFα amine-coupled to CM5 chip, antibody in flow
Experimental: After each examination, they were washed with 5 μl of 50 mM hydrochloric acid aqueous solution at a flow rate of 3 μl/min so as to wash away the residual antibodies from the immobilized ligands. The binding curves were subjected to nonlinear regression analysis using BIAevalution software (T100 evalution version 2.0, Biacore).

[8] = molecular target: T1, recombinant human TNF-α (Product …); experiment: cell-based or functional assay
[9] = molecular target: T1, recombinant human TNF-α (Product …); experiment: flow cytometry competition: FITC-TNF-α (100 ng/ml) on U937 cells, antibody titrated; average of 3
Experimental: as §2

[10] = molecular target: T1, recombinant human TNF-α (Product …); experiment: competition ELISA: biotin-TNF-α (10 ng/ml) on coated P75 receptor-Fc, antibody titrated; average of 3
Experimental: as §1

T1 sequence (P01375 77-233 limits assumed): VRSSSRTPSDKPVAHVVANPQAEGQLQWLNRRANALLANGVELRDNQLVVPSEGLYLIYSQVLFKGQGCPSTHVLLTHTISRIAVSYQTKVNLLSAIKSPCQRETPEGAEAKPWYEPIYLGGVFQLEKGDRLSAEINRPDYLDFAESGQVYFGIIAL

B1: fully human anti-TNF-α monoclonal antibody 4H16 (antibody, human IgG1, kappa, V domains shown)
VH: QVTLRESGPALVKPTQTLTLTCTFSGFSLSTSGMCVSWIRQPPGKALEWLALIDWDDDKYYSTSLKTRLTISKDTSKNQVVLTMTNMDPVDTATYYCARILVDIVATITNDAFDVWGQGTMVTVSS
VL: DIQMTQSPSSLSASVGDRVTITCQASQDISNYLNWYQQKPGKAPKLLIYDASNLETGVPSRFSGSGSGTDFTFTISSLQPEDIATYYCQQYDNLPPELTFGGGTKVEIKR
notes: The genes carried a signal peptide at the 5' end; also called fully human antibody 4H16
Q: With B1 as the binder, how does the IC50 [1] read?
A: 0.25 µg/mL

Q: And the IC50 [2]?
A: 0.27 µg/mL

Q: What about the IC50 [3] of the same binder?
A: 0.89 µg/mL

Q: And the IC50 [4]?
A: 1.03 µg/mL

Q: What about the IC50 [5] of the same binder?
A: 0.97 µg/mL

Q: What about the IC50 [6] of the same binder?
A: 0.31 µg/mL

Q: What about the Kd [7] of the same binder?
A: 360 pM

Q: What about the koff [7] of the same binder?
A: 5.7e-05 s⁻¹

Q: And the kon [7]?
A: 158000 M⁻¹ s⁻¹

Q: What about the “IC50 of resistance to TNF-α-mediated killing of L929 cells (MTS), average” value [8] of the same binder?
A: 0.0572 µg/mL

Q: What about the “IC50 of resistance to TNF-α-mediated killing of L929 cells (MTS), experiment 1” value [8] of the same binder?
A: 0.0592 µg/mL

Q: What about the “IC50 of resistance to TNF-α-mediated killing of L929 cells (MTS), experiment 2” value [8] of the same binder?
A: 0.0459 µg/mL

Q: And the “IC50 of resistance to TNF-α-mediated killing of L929 cells (MTS), experiment 3” value [8]?
A: 0.0664 µg/mL

Q: What about the IC50 [9] of the same binder?
A: 0.96 µg/mL

Q: And the IC50 [10]?
A: 0.28 µg/mL
